Measured values as given in the nanobody polyreactivity screen of Harvey et al. (2022).

Experiment: yeast display, Sf9 membrane polyspecificity reagent, FACS + sequencing; frameworks hold sequencing errors
Method in brief: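 Genes from sorted yeast were amplified by colony PCR, read by MiSeq 2 × 250 sequencing and filtered on CDR length. These cells carried a synthetic nanobody library in Saccharomyces cerevisiae BJ5465 and were sorted by FACS into low and high (top ~1%) gates on anti-HA and streptavidin fluorescence. Polyreactivity is labelled according to the gate of origin.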

With “QVQLVESGGGLLQAGGSLRLICAASGRIFQTYAMGWYRQAPGKERELVARIRLSGGSTYSADSVKGRFTISRDNAKNTGYLQKNSQKPEDTAVYSCAARFSRARFTDPYYYWGQGTQVTVSS” the “polyreactivity (PSR sort gate)” value was “high polyreactivity”.

For “QVQLVESGGGLVQAGGSLRLSCAASGSTLYYNAMGWYRQAPGKERELVAAITSGGSTSYADSVKGRFTISRDNAKNTVYLQMNRLKPDDTAVYYCAAVFYRRFDYWGQGTQVTVSS”, the “polyreactivity (PSR sort gate)” value was “low polyreactivity”.

In the case of “QVQLVESGGGLVQAGGSLRLSCAASGRIFHYYMGWYRQAPGKERELVAVISSGDGTYYADSVKGRFTISRDNAKYTVYLQMNSLKPEDTAVYYCAADAPREYVDHYKYDDDYWGQGTQVTVSS”, the “polyreactivity (PSR sort gate)” value is reported as “low polyreactivity”.

For “QVQLVESGGGLVQAGGSLRLSCAASGRIFYLYVMGWYRQAPGKERELVAAISIGSTTNYADSVKGRFTISRDNAKNTVYLQMNSLKPEDTAVYYCNARDGPPFYDYWGQRTQVTVSS”, the “polyreactivity (PSR sort gate)” value was “low polyreactivity”.

With “QVQLVESGGGLVQAGGSLRLSCAASGGTFAWNAMGWYRQATGKERELVAAISFDGTSTYYADSVKGRFTISRDNAKNTVYLQMNSLKPEDTAVYYCNRVYLGYFRYDYWGQGTQVTVSS” the “polyreactivity (PSR sort gate)” value was “high polyreactivity”.

With “QVQLVETGGGLVQAGGTLRLSCAASGRIFLTNAMGWYRQAPGKERELVATITASGGTTYYADSVKGRFTISRDNAKITVYLQMNSLKPDDTAVYYCAKRYYLRGFGRYYYCGQGTQVTVSS” the “polyreactivity (PSR sort gate)” value was “high polyreactivity”.

In the case of “QVQLVESGGGLVQAGGSLRLICAASGFIFPQNAMGWYRQAPGKERELLAAISKRGGSTYYADSVKGRFTISRDYAKNTVYLQMNSLKPEDTAVYYCAAGYRTRRGLGYYYWGQGTQVTVSS”, the “polyreactivity (PSR sort gate)” value is reported as “high polyreactivity”.

With “QVQLVESGGGLVQAGGSLRLSCAASGFIFGQYAMGWYRQAPGKERELVAAISWSGGRTNYADSVKGRFTISRDNAKNTVYLQMNSLKPEDTAVYYCAARKGKYPQYPYGYWGQGTQVTVSA” the “polyreactivity (PSR sort gate)” value was “high polyreactivity”.

With “QVQLVESGGGLVQAGGSLRLSCAASGFTFYGYAKGWYRQAPGKERELVAAISKRGGSTYYADSVKGRFTISRDNAKNPVYLQMNSLKPEDTAVYYCNADKHYQYRYRQYGYWGQGTQVTVSS” the “polyreactivity (PSR sort gate)” value was “high polyreactivity”.

With “QVQLVESGGGLVQAGGSLRLSCAASGFIFYDYAMGWYRQAPGKERELVAAIRSSDGGTYYADSEKGPFTISRDNAKNTVYLQMNSLKPEDTAVDYCAAEIRWGWHPYYDYDEYWGQGTLVTVSS” the “polyreactivity (PSR sort gate)” value was “low polyreactivity”.

With “QVQLVESGGGLVQAGGSLRLICAASGSIFSWYTMGWYRQAPGKERELVARITTSGGTTRYADSVKGRFTISRDNAKHTAFIQMNSLKPVDTAVYYCAADRSPYWRGYVRYNYWGQGTQVTVSS” the “polyreactivity (PSR sort gate)” value was “high polyreactivity”.

For “QVQLVESGGGLVQAGGSLSLSCAASRFTIGLYAMGWYRQAPGKEREMVAVISSSGGSTYYADSVKGRFTISRDNAKNTVYLQMNSLKPEDTAVYYCAAEWHDYKFDVTYDYWGQGTQVTVSS”, the “polyreactivity (PSR sort gate)” value was “low polyreactivity”.

In the case of “QVQLVESRGGLVQAGGSLRLSCAASGSIFPFYAKGWYRQAPGKEREFVASISSGGSTNYADSVKGRFTISRDNAKNTVYLQMNSLKPEDTAVYYCNADVPYRWDTWFQVVYPESYDYWGQGTQVTVSS”, the “polyreactivity (PSR sort gate)” value is reported as “low polyreactivity”.

With “QVQLVESGGGLVQAGGSLRLSCAASGRIFIGNAMGWYRQAPGKERELVAAISKRGGSTYYADSVKGRFTISRDNAKNTVYLQMNSLKPEDTAVYYCNKESLYREFDYWGQGTQVTVSS” the “polyreactivity (PSR sort gate)” value was “low polyreactivity”.

With “QVQLVESGGGLVQAGGSLRISCAASGYMFPWYTMGWYRQAPGKERELVAAITSGSSTYYADSVKGRFTISRDNAKNTVYLQMNSLKPEDTAVYYCNAYDDAYRLYRLRGRDYWGQGTQVTVSS” the “polyreactivity (PSR sort gate)” value was “low polyreactivity”.

With “QVQLVESGGGLVQAGGSLRLSCAASGSIYNINAMGWYRQAPGKERELVATITSGGTTSYADSVKGRFTISRDNAKNTVYLQMNSLKPEDTAVYYCNAEIYPIVKAGRQHPRRYDYWGQGTQVTVSS” the “polyreactivity (PSR sort gate)” value was “low polyreactivity”.

With “QVQLVESGGGLVQAGGSLRLSCAASGITFAWYAMGWYRQAPGKERELVAAIDDRGGSTYYADSVKGRFTISRDNAKNTVYFQMNSLKPEDTAVYYCNADTKSYEPYRLDYWGQGTQVTVSS” the “polyreactivity (PSR sort gate)” value was “low polyreactivity”.
